According to IntAct's records for PubMed 15226396:

B1: Tyrosine-protein phosphatase non-receptor type 1 (Gallus gallus (Chicken)), O13016 (parent)
chain: MEIEKEFHRLDQAASWAAIYQDIRHEASDFPCKVAKHPRNKNRNRYRDVSPFDHSRIKLNQGDNDYINASLIKMEEAQRSYILTQGPLPNTCGHFWEMVWEQKSRGVVMLNRVMEKGSIKCAQYWPRKEEKEMFFEDTNLKLTLISEDIKSYYTVRQLELENLTTQETREILHFHYTTWPDFGVPESPASFLNFLFKVRESGSLNPEYGPVVVHCSAGIGRSGTFCLVDTCLLLMDKRKDPSSVDVKQVLLEMRKYRMGLIQTADQLRFSYLAVIEGAKFIMGDASVQEQWKELSNEDLDPPPEHTPPPPRPPKRTSEMHNGRMHEHAEFFPKHQVVEEEIRCSVSTAEETVSDGRVFSSVPLITDSTSQDTEIRRRTVGENLHVTAHKEESKSESVEEDDENMMTTWKPFLVNICMFTFLTAGAYLCYRVCFH

Variants of: B1
Settings: with fer_human FER

effect of a mutation on the interaction | Variant
disrupting interaction | Y152F
disrupting interaction | C215S
